These results are taken from FireProtDB (doi:10.1002/pro.2449).

The conditions of the data set: pH 7, transition: 2, reversible: yes, whole UniProt chain shown; for Tm / unfolding enthalpy (calorimetric): Thermal, DSC; for denaturant m value / denaturant midpoint (higher = more stable) / unfolding free energy: 25 °C, Urea.
[1] abbreviates: Kitasatospora aureofaciens, MOPS.
The mark [2] stands for this setting: Borreliella burgdorferi, CD, Sodium Phosphate Buffer.
Setting [3] is: Aspergillus oryzae (strain ATCC 42149 / RIB 40), MOPS.

B1: Guanyl-specific ribonuclease Sa wild type, P05798 (protein)
chain: DVSGTVCLSALPPEATDTLNLIASDGPFPYSQDGVVFQNRESVLPTQSYGYYHEYTVITPGARTRGTRRIITGEATQEDYYTGDHYATFSLIDQTC
For the protein B1, under setting [1], the Tm came to 48.4 °C and the “unfolding enthalpy (calorimetric)” value came to 92 kcal/mol.

B2: Variable large protein wild type, Q5DVG3 (protein)
chain: MNTKKISSAILLTTFFVFINCKSQVADKDDPTNKFYQSVIQLGNGFLDVFTSFGGLVAEAFGFKSDPKKSDVKTYFTTVAAKLEKTKTDLNSLPKEKSDISSTTGKPDSTGSVGTAVEGAIKEVSELLDKLVKAVKTAEGASSGTAAIGEVVDNAAAAKAADKDSVTGIAKGIKEIVEAAGGSKKLKAAAAKGENNKGAGKLFGKAGDAAHGDSEAASKAAGAVSAVSGEQILSAIVKAAAAGDQEGKKPGEAKNPIAAAIGEGDGDAEFNQDGMKKDDQIAAAIALRGMAKDGKFAVKNDEKGKAEGAIKGAAESAVRKVLGAITGLIGDAVSSGLRKVGDSVKAASKETPPALNK
Take B2: under setting [2], the denaturant m value stood at 3.86 kcal/mol/M, the “denaturant midpoint (higher = more stable)” value came out at 1.19 M and the unfolding free energy was 4.6 kcal/mol.

B3: Guanyl-specific ribonuclease T1 wild type, P00651 (protein)
chain: MMYSKLLTLTTLLLPTALALPSLVERACDYTCGSNCYSSSDVSTAQAAGYQLHEDGETVGSNSYPHKYNNYEGFDFSVSSPYYEWPILSSGDVYSGGSPGADRVVFNENNQLAGVITHTGASGNNFVECT
Turning to B3, under setting [3], the denaturant m value was 1.17 kcal/mol/M, the “denaturant midpoint (higher = more stable)” value turned out to be 5.2 M, the unfolding free energy was determined as 6.1 kcal/mol and the melting temperature (Tm) stood at 52.5 °C. Moreover, the “unfolding enthalpy (calorimetric)” value under setting [3] was 107 kcal/mol.
